Reference: article doi:10.1101/2023.01.19.524411 (bioRxiv, 2023)

Molecular target: the molecule itself
Experiment: native gel or EMSA

B1: flag-tagged STING (stimulator of interferon genes) (natural protein, UniProt Q3TBT3 1-378, looked up)
chain: MPYSNLHPAIPRPRGHRSKYVALIFLVASLMILWVAKDPPNHTLKYLALHLASHELGLLLKNLCCLAEELCHVQSRYQGSYWKAVRACLGCPIHCMAMILLSSYFYFLQNTADIYLSWMFGLLVLYKSLSMLLGLQSLTPAEVSAVCEEKKLNVAHGLAWSYYIGYLRLILPGLQARIRMFNQLHNNMLSGAGSRRLYILFPLDCGVPDNLSVVDPNIRFRDMLPQQNIDRAGIKNRVYSNSVYEILENGQPAGVCILEYATPLQTLFAMSQDAKAGFSREDRLEQAKLFCRTLEEILEDVPESRNNCRLIVYQEPTDGNSFSLSQEVLRHIRQEEKEEVTMNAPMTSVAPPPSVLSQEPRLLISGMDQPLPLRTDLI
  stoichiometry N: 2
